# Experiment: soluble on expression in E. coli; label from the status in PepcDB or PDB records
row,Sequence,soluble on expression in E. coli
1,MAGNHTNRPGLRKTNKKGATKGSGAVRRRGLKGKGPTPKAEDREYHAAYKKKMERKRRDQGRHVKEETSELVVGRNPVVECLHAKVPATT,not soluble
2,MAGQADNRAPYAKIAAHYTELITSGQLQPGSLLPSIKNLAEEWNVSTATAEKALRKLRNEGLVRGIHGIGTEVLDQPAPMSSGAQRQDRGRRTGSSWGAGERSDSHKAAVVPAPAEVAHALDIEPGSDVIRRSRVYRDRHGIVAHSTSWIPARFGRLIPQLAASERLTGGTSLQLIAQVTGHPITHRVDSASARLLTPEYTRLLELDPENPPAEPVVVMTAKFVDSEGTVVEYGVDLGGPGRTWRTESEVTQ,soluble
3,MAGRAAVPEVIWSRPERTGRGPRPAYTRADIAAAAVRIADADGLDAVSMRRVAGELGCGTMSLYNYVPRKEDLYELMMDAVSGEHELWEPSGDWRADMIRVAHQTRALMHRHTWLPRLMSPVYGFSPNALRYLEHCLACLDPFEAPYGTKMELVAMVNGVVTTYVANEIATVERTRSLPWSEEQENAARIAYLGRQVASGAYPRLAASFAEDAGPIDLEGVFERALARVLDGFA,not soluble
4,MAGSSEEAPDYGRGVVIMDDWPGYDLNLFTYPQHYYGDLEYVLIPHGIIVDRIERLAKDIMKDIGYSDIMVLCVLKGGYKFCADLVEHLKNISRNSDRFVSMKVDFIRLKSYRNDQSMGEMQIIGGDDLSTLAGKNVLIVEDVVGTGRTMKALLSNIEKYKPNMIKVASLLVKRTSRSDGFRPDYAGFEIPNLFVVGYALDYNEYFRDLNHICVINEHGKEKYRV,soluble
5,MAGVTKEQIAKAKEWDLLSYLQAYEPQELKKSGPREYCTRTHDSLKISNGKWCWNSRGIGGRTALDYLIKVRGMDFVGAVETLCGYCAPPPEKAPPIKEKQPKPFRLPQASRCASAVVGYLQDRGIDPELLGVCMEAGILYESCKYQNCVFVGRDTAGNARAASLRGTRDGFRMDVEGSDKRYSFCLPAGKADCPRLAVAESPIDALSLATLVKLSGGEPRDSHYLSLGGTGPRALIQFLHDHPHVTQVSLCLDNDKAGLEGMERLTQEIQNDAELSRRVKLVYPNPPKQGKDYNEFLCTHVKAVRTAQRQRDAAR,not soluble
6,MAHDVEVKNAVRGAYVFDRLSLEMAAEKAGVSFGTARRWKANAESNGDNWDKARDVHVMASGGIENIAQGLLTGFLIKYRKLMSELEENTEMATAAKVEALSALADSFAKMTASSKKLLPETSAMATAMRAIEMMANIVKSKKPHLLPDFLEMLDDLEVQFKKEFK,not soluble
7,MAHHHHHHGPNTNPVAAWKALKEGNERFVAGRPQHPSQSVDHRAGLAAGQKPTAVIFGCADSRVAAEIIFDQGLGDMFVVRTAGHVIDSAVLGSIEYAVTVLNVPLIVVLGHDSCGAVNAALAAINDGTLPGGYVRDVVERVAPSVLLGRRDGLSRVDEFEQRHVHETVAILMARSSAISERIAGGSLAIVGVTYQLDDGRAVLRDHIGNIGEEV,soluble
8,MAHHHHHHMALKLCKRFLRSNTKKPIFSKARDNLKERFDDDNYSFLEDNSFDSPLKASDEFPSYMQPSDKNSSWSEEWRDENLKLREKENRYNLRVSDNYAYSVPYNYKIVIPHKGKNIKDEKDKRKKLLNDEKYIKEEYSRDVSNTLNYSDFCGFRNPTLSTFENYRYWQDSGFKKFMNRIFPIKIPEHRKIDPLLREYIYFLHSFDPYRFTFKRLSERYLFPENVIRSIYKEESVKRFLEDYHLCDDKTKRISKKEAVLKIKELIYSKKIGYKDIGDYENIKNEQDEFCGHKNTFDQINRQIIQVESISAFPLADRRNPVPKRVDIDMTVCNTSNIKIMNWINPNDKVIF,soluble
9,MAHHHHHHMALSSSGSAALGDRIARAAAAAPQWTAQQRCFRQLLKSLRGAYFHDRSKLFWARHRILVEFYKYSRVEEERDVLLLVGIGNEIATFVAEYMKVDVGAIMEHNKKIQSLPVAKAKRYREEYLLHEKQHESWCKQKIRLMMDRRPPPPYPFS,not soluble
10,MAHHHHHHMALTTDYSKLGELIHQSPESPSLYNQAKYHTQKQNDSFYEIKRFMCLGSTIPDDAQYSVDLLIDRGDKKCRDVLAESFRVEGYKYATTNNDDNVRFAKLFFDHYANMFYCMHLHGDDRKCNSLFRHFYEAVGKQTR,not soluble
11,MAHHHHHHMANSKFSYVKLFEEERKILLNCYFIVRIDGCDFKHFVKAHNYNKPNDIKGLNLMNECALDILKKFDDIDLCYGHSDEYSFLFNKSTKLWNRRYDKILTNVVSYFTSCFLYKWKNYFQKEMLYAPSFDARIVVYPNEKEIKDYFSWRQVDCHINTQYNECFWNLIRQANYTNDEAHKFLLTTQTKDKNELLFSRFNINYNNLPEIFRRGTIIIRNKTFQKKNEALGTIYNNDTANNIDDNNNNNNNNNNTFNDNNDIENFEKLKKECLPKFIISHENLVSEKFWDKYDYIFKKKKDLEKK,not soluble
12,MAHHHHHHMAQEISNLVKKYNVTWQQTMLRIYDPKETVEFYEKNFGMINIHTYHFNEYNFSLYFLITPPYDEEERKKLPEPNTKESEKYLWNLNTVCLELTYNHNSQEKLSNGNNENDRGFGHIAFNCNDVIEQCDNLFKKNVKFHKLPHETKMKTIGFALDPNNYWIEIVKRSNQVKWKNYKNITNFSQTMIRVKNPEKSLYFYIHILGMKLIHVKHCSDFSLYFLKSNYACAENNKEMIEDQSNKNTNEIYDFNSLKNSYQTDEDYENFKQSWEPVLELTHNHGTEDDDNFSYHNGNTEPRGFGHIGFLVNDLENYCKELETLNVTFKKKVTEGLMKNIAFIYDPDNYVIELIQRDTSFIAK,soluble
13,MAHHHHHHMARHSSTPLSSSVCVRRKTMSSCRTSSFTHTSSRTLARVQRRFSRETTAPRAVLVTLQDARTNPRNAVRRLDDIHIPSLNQRLSSRLQNSSSQSNRDAIRSPSDANCTAQPNSDNANLATAVLSTKTSATQDAKFLLMPSISVSARAPDTAMADASCNTAPSASS,not soluble
14,MAHHHHHHMASTDEVVLSENRALRVECEAQEVEIAQLKNYLHMSVTKPDLCFGQQRVTLNKCLNSFPEKAWQKLIDETPEVDSPAIITALEDQLADKNKHLTACLQEISNLRSRSGDGKTKPDSITDGNTAHLLSQITFLHNEVERLEQQVNAVRAAGKEELRVMTIEYNDKLQLREKENRLLTEQLRGRKNHLADGEDMAARTKTLESQLATAGIRKKFFTHREKQFPGKNPKIRGCY,not soluble
15,MAHHHHHHMCACTYSYPRAAHGHDGTTSQLFTRKRIFTLPQLHRSYFLKLLFVQKPLSNPLLAVSLHLTFHQHHSLLGPSVACRAHKHMINYYAKCRARNHTEGEGRCLAFRGMY,not soluble
16,MAHHHHHHMCAKLRDSANISSLRKERDCWQREVARVSDAVRVLCGGANICSNVESPTEWAESLCEAVQDGQAALVCLSLELWTGGTWAGIQGFKEQLTAYVGACASAAKEAAERVEALEVEVLRLKESEASLSARCENTEAHARNVEEDLKRASTQAERVSELEQETSDLRTRCNLLRKELQRQREAMQRDRPQPHETANSETAASPITENASAVQSVLLAAAGCVSERDVATFVGSRGSQDGSLKLSKVGAELLIKENAELKRENAHNNGVIAQYIRELEGYKANERVQLSIEYLRNIVQQYLCAAEDLRPKMIPAICTVLEFSSKQKEDVQTANPRCPRFH,soluble
17,MAHHHHHHMDCQALAKSLEQMNHLHNVKYLEAKDLTDFNQKSAYYICHQIAEKQLSKEGGHVVIGLSGGKTPIDVYKNIALVKDIKIDTSKLIFFIIDERYKRDDHKFSNYNNIKFLFESLKINEKEQLYRPDTSKNIVECVRDYNEKIKNMVKKYTKVDIAILGMGSDFHIASLFPNIFFNIYMNNYQNSYIYDESSIKVANSNDTSDNDNLDLLKEYVYFTTTNNFDVRKRITVSLDLLGNASSKIFLLNSTDKLDLWKNMLLKSYVDVNYCLYPAVYLIDSMNTTVVTCGYTNYPQMLEDIYVSNSSLS,soluble
